B1: OR4K15 (parent)
chain: GUUAACGGUCAUAGGCCAUGGAAACUAGGAGCACCAUUUCGCUGCCAGUGAAGAAAUGAACAAAGAAAAUCUGGGCCAGGCAGGCAUCAAAAGAAAUAGUCUUGCGCUCAACCAGAAAGUCUGUAAUCAUUUUAAGGGUA

The variants in the data set derive from B1. Nature of the data set: self-cleavage, relative activity (ratio to wild type); higher = more cleavage; in vitro, sequencing; the parent is a self-cleaving ribozyme.
On to G29U A118G, for which the self-cleavage came to 0.78.

As for G75A A117G, the self-cleavage came to 0.07.

As to U43A A140G, the self-cleavage stood at 2.11.

A62G A126U: the self-cleavage amounted to 1.6.

With G21A A126G, the self-cleavage worked out at 1.09.

In the case of U72C A89U, the self-cleavage stood at 0.45.

Take A68G A78G: the self-cleavage was 0.3.

Regarding U108C U130G, the self-cleavage came to 0.

In the case of U2C A111U, the self-cleavage was 0.27.

As to A27U U37C, the self-cleavage is 1.42.

Take A66G U127C: the self-cleavage turned out to be 1.11.

For U70C U130C, the self-cleavage came to 0.21.

Regarding U38C A60G, the self-cleavage was determined as 1.44.

On to A63U A64G, for which the self-cleavage was 0.94.

As to A54C U87C, the self-cleavage came out at 1.45.

Turning to A66G U139A, the self-cleavage stood at 1.72.

For the variant U9A A82U, the self-cleavage stood at 0.12.

For the variant A11U A98U, the self-cleavage is 1.82.

As for A60G G79C, the self-cleavage amounted to 0.07.

As to A11G U132A, the self-cleavage amounted to 1.16.

U100C A126G: the self-cleavage stood at 1.86.

A52G A117U: the self-cleavage worked out at 0.97.

For U70A A125G, the self-cleavage was determined as 0.44.

For the variant A52G C76U, the self-cleavage came out at 0.13.

Turning to G15C G73A, the self-cleavage came out at 0.17.

On to U2C A47U, for which the self-cleavage was 0.86.

Turning to A54G A66U, the self-cleavage was 1.14.

Consider A51C A117G, for which the self-cleavage turned out to be 0.81.

C25U U72C: the self-cleavage came to 0.4.

Regarding A68G A135U, the self-cleavage was 0.68.

As for A27U A134G, the self-cleavage was 1.3.

Consider C6U U127C, for which the self-cleavage is 0.57.

In the case of A47G A92C, the self-cleavage came out at 0.42.

With A11G G14A, the self-cleavage was determined as 1.31.

In the case of G75C A140G, the self-cleavage was 0.15.

For the variant A82G G99U, the self-cleavage stood at 0.07.

Regarding U124A U130C, the self-cleavage is 0.1.

As to U57G A135G, the self-cleavage is 1.74.

G15A A33G: the self-cleavage is 0.94.

G115A A116G: the self-cleavage stood at 0.23.

Regarding U39A U103C, the self-cleavage amounted to 2.1.

Turning to U70C G106A, the self-cleavage was 0.01.

For the variant A22U A125G, the self-cleavage is 0.52.

With A36U A114G, the self-cleavage turned out to be 0.6.

Take A67U A90G: the self-cleavage came out at 1.72.

With U3C U57A, the self-cleavage is 0.88.

For the variant U120C A135G, the self-cleavage was 1.03.

In the case of U39C A63G, the self-cleavage came out at 1.66.

With A22G U87A, the self-cleavage worked out at 1.28.

Consider U43C A140U, for which the self-cleavage was found to be 1.18.

A78U U100C: the self-cleavage was 1.1.

For the variant U37C U130A, the self-cleavage was 0.91.

A33G C42G: the self-cleavage came out at 1.02.

On to A63G U97C, for which the self-cleavage was 2.55.

Consider A59G A134G, for which the self-cleavage stood at 0.34.

G58U U127C: the self-cleavage turned out to be 1.33.

For A4G A64C, the self-cleavage was found to be 0.79.

For the variant A47U A89U, the self-cleavage amounted to 0.95.

Take A30U A134G: the self-cleavage came to 1.06.

Turning to U108C A110U, the self-cleavage was found to be 0.01.

For A52G A68G, the self-cleavage came out at 1.5.

On to U39A G115C, for which the self-cleavage was 0.52.

In the case of U49C A52U, the self-cleavage came to 1.38.

For the variant A23G U132A, the self-cleavage was determined as 0.86.

Turning to A66U A96G, the self-cleavage was 1.17.

Take A36G A117U: the self-cleavage stood at 1.29.

Consider A62G A114G, for which the self-cleavage was 0.44.

Take A52C A94G: the self-cleavage was 2.5.

For the variant A55G A82C, the self-cleavage was 0.16.

In the case of A111G A117G, the self-cleavage worked out at 0.01.

Take A11G G74U: the self-cleavage was determined as 0.24.

Take A30G A82C: the self-cleavage is 0.07.

For A62G A78G, the self-cleavage is 0.27.

U87C U133A: the self-cleavage turned out to be 0.9.

As to A33G U97A, the self-cleavage was 1.18.

U49G U87C: the self-cleavage is 1.48.

For the variant A52C A78C, the self-cleavage turned out to be 0.21.

A60C A63G: the self-cleavage turned out to be 2.15.

As for G79U G104U, the self-cleavage turned out to be 0.01.

Regarding A18U A69G, the self-cleavage came to 1.92.

With G58A U103C, the self-cleavage amounted to 1.09.

With U57A G138A, the self-cleavage was determined as 1.33.

U120A A129U: the self-cleavage was 0.57.

Consider U43C A52U, for which the self-cleavage was 1.51.

In the case of G21A U132A, the self-cleavage was found to be 1.94.

With A36G A126G, the self-cleavage was determined as 1.48.

In the case of U37C A89G, the self-cleavage turned out to be 1.52.

As for A23G U100C, the self-cleavage was determined as 1.72.

For G48A A66U, the self-cleavage turned out to be 1.33.

Regarding C32U A36U, the self-cleavage came out at 1.76.

As to A36U C76A, the self-cleavage was found to be 0.1.

Consider A5C U127C, for which the self-cleavage is 0.89.

Turning to A30G A47C, the self-cleavage stood at 1.21.

With A90U A91G, the self-cleavage worked out at 1.95.

For G48A U102C, the self-cleavage was determined as 1.99.

A23G A33C: the self-cleavage worked out at 1.52.

On to A30G U97C, for which the self-cleavage was 1.23.

In the case of C46U A82U, the self-cleavage was 0.14.

Turning to U2G A116G, the self-cleavage worked out at 0.37.

As for A5G U39A, the self-cleavage amounted to 1.16.

On to G50U U132C, for which the self-cleavage was determined as 1.23.

Regarding A22G A82G, the self-cleavage was determined as 0.68.

For the variant A89G A126G, the self-cleavage came to 0.6.

Turning to A63G C109A, the self-cleavage stood at 0.55.

In the case of A24G U70C, the self-cleavage stood at 0.53.

As for G106U U108A, the self-cleavage amounted to 0.01.

As to A47U A111U, the self-cleavage worked out at 0.06.

As to C34A U102A, the self-cleavage stood at 1.09.

In the case of A24G U102A, the self-cleavage was determined as 0.51.

With A23G A140C, the self-cleavage came out at 1.55.

Turning to A23G A140G, the self-cleavage was determined as 1.61.

Regarding U38A A116G, the self-cleavage came out at 0.81.

For A22G A91C, the self-cleavage is 1.93.

Regarding A47U A82C, the self-cleavage turned out to be 0.21.

U3C A30U: the self-cleavage came to 1.37.

For the variant U26C U132C, the self-cleavage is 0.52.

Turning to A95C A110G, the self-cleavage stood at 0.16.

As for A91G C105A, the self-cleavage came out at 0.03.

As to G15A A118G, the self-cleavage was determined as 0.47.

Take G1U U103C: the self-cleavage is 1.59.

As for A66G A92U, the self-cleavage worked out at 1.98.

For A89U U132C, the self-cleavage was 1.64.

Turning to C61U U72A, the self-cleavage came to 0.19.

As for G41U A82G, the self-cleavage came out at 0.2.

With A30G A69U, the self-cleavage is 1.18.

On to U19A U43C, for which the self-cleavage came to 1.77.

With A62U A111G, the self-cleavage came to 0.02.

Turning to A110G U122C, the self-cleavage came out at 0.09.

On to U9C G115C, for which the self-cleavage is 0.11.

As to A23G U38C, the self-cleavage came out at 1.38.

As for A60C A111G, the self-cleavage was determined as 0.

As for U12C G41A, the self-cleavage was determined as 1.35.

In the case of G41A A86G, the self-cleavage is 1.05.

For the variant U122A A126G, the self-cleavage is 0.67.

Turning to C10U A86G, the self-cleavage was 0.7.

A51G U103A: the self-cleavage was 0.32.

Take A52C A89G: the self-cleavage turned out to be 1.02.

Regarding C17U A24U, the self-cleavage amounted to 1.29.

With U37G A129G, the self-cleavage amounted to 1.12.

Turning to A11U A67G, the self-cleavage was determined as 1.5.

With G53A G136U, the self-cleavage is 2.03.

As to A52U U100C, the self-cleavage was 2.57.

As for A63G C85U, the self-cleavage was found to be 1.21.

Take G20A U72A: the self-cleavage came out at 0.06.

For the variant A69G C81A, the self-cleavage is 0.15.

As to U49A U72A, the self-cleavage came to 0.36.

As to A62G A66G, the self-cleavage was found to be 1.48.

Turning to G21U A52G, the self-cleavage stood at 1.58.

Consider A126G U130C, for which the self-cleavage is 0.61.

Take A52U U72C: the self-cleavage was 0.17.

For A33U U139G, the self-cleavage worked out at 2.5.

With A33G A126U, the self-cleavage is 0.86.

For the variant A69G C121A, the self-cleavage came out at 2.02.

Take A56U A63G: the self-cleavage is 2.61.

U43C U103C: the self-cleavage is 1.03.

With A11U A36U, the self-cleavage came to 0.78.

In the case of A95G U120C, the self-cleavage worked out at 1.82.

Consider U26A, for which the self-cleavage came out at 1.07.

As for A23U A89G, the self-cleavage came out at 0.86.

As for U131A A134U, the self-cleavage was 0.77.

For the variant A63G U139A, the self-cleavage turned out to be 1.74.

Regarding A52G A94U, the self-cleavage was 2.01.

Take A5U G104A: the self-cleavage amounted to 0.09.

Take U2A C77U: the self-cleavage was 1.39.

In the case of A89G U130C, the self-cleavage was 1.79.

Turning to A27G U103A, the self-cleavage is 0.45.

As for U43C G48A, the self-cleavage stood at 1.32.

Source of the values: the RNAGym collection of RNA variant scans (doi:10.7554/elife.90254).
